Earlier results, collected in article PMC11747410.
pKd: −log10 of the molar value. Read-outs that look alike come from different tables or passages of the source.

How the values were obtained:
[1] = target: CD166/ALCAM (Homo sapiens) (UniProt Q13740)
[2] = target: CD166/ALCAM (Homo sapiens) (UniProt Q13740); remark: listed apart in the source

| pKd [1] | pKd [2] | Substance |
| --- | --- | --- |
| 6.15 |  | CD6 (from UniProt P30203) |
|  | 4.41 | CD166/ALCAM (from UniProt Q13740) |
